This note sets out measurements from article PMC8348221, “Characterization of the Intramolecular Interactions and Regulatory Mechanisms of the Scaffold Protein Tks4” (International Journal of Molecular Sciences, 2021).

Where no end group is shown, it is not given here.

Common to all, as to details: both partners purified
Experiment [1] addresses T1, Tks4 PX–SH3_(2) fragment (residues 1–279) (human, UniProt A1X283 1-279).
T1 construct: human Tks4 (SH3PXD2B), residues 1-279: PX, SH3_(1) and SH3_(2) domains; The modified pET vector has a TEV site after the His-tag; source: E. coli Rosetta pLysS, purified
T1 sequence (looked up): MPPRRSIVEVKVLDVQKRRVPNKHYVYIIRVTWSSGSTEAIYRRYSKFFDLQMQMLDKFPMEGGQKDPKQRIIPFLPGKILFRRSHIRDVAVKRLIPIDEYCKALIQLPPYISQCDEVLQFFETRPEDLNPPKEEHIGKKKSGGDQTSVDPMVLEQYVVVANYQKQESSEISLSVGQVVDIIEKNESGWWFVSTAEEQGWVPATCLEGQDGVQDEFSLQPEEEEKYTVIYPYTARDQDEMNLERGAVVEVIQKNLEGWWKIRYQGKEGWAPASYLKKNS
The experiment in a line: MST; NT-647-labelled PRR–SH3_(3) constant at 20 nM, titrated with PX–SH3_(2) (16-step 1:2 dilutions from 40 µM); PBS, 0.5 mM TCEP, 0.05% TWEEN 20; room temperature; 1:1 Kd fit.

For experiment [2], the target named is T1, Tks4 PX–SH3_(2) fragment (residues …). Kind of experiment: ITC; PX–SH3_(2) 20 µM in the cell, PRR–SH3_(3) 250 µM in the syringe; 25 °C; PBS with 0.5 mM TCEP; one set of independent binding sites model.
The target of experiment [3] is T2, Tks4 SH3_(1)–SH3_(2) tandem SH3 fragment (residues 155–279) (human, UniProt A1X283 155-279, NT-647 amine-reactive dye (in the MST only)).
T2 construct: human Tks4 (SH3PXD2B), residues 155-279: first and second SH3 domains with their linker; The vector has a TEV site after the His-tag; Unlabelled in the tryptophan fluorescence titrations; source: E. coli Rosetta pLysS, purified
T2 sequence (looked up): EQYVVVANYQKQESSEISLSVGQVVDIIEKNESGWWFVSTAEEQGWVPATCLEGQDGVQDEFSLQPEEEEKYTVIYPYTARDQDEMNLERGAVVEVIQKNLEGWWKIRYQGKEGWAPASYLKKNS
The experiment in a line: other fluorescence titration; intrinsic tryptophan fluorescence (excitation 295 nm, followed at 340 nm); SH3_(1)–SH3_(2) constant at 5 µM, PRR fragments 1.8–100 µM; PBS, 0.5 mM TCEP, 0.05% TWEEN 20; 1:1 binding model.

Experiment [4] has as its target T2, Tks4 SH3_(1)–SH3_(2) tandem SH3 …. The experiment in a line: MST; NT-647-labelled SH3_(1)–SH3_(2) constant at 20 nM, titrated with PRRL (16-step 2:3 dilutions from 166 µM); PBS, 0.5 mM TCEP, 0.05% TWEEN 20; room temperature; standard Kd fit model.
The target is the same in experiment [5]. The experiment in a line: other fluorescence titration; intrinsic tryptophan fluorescence (excitation 295 nm, followed at 340 nm); SH3_(1)–SH3_(2) constant at 5 µM, PRR fragments 1.8–100 µM; PBS, 0.5 mM TCEP, 0.05% TWEEN 20; 1:1 binding model. The source holds these as a separate data set.
The target in experiment [6] is T3, Tks4 PX–SH3_(1) fragment (residues 1–210) (human, UniProt A1X283 1-210).
T3 construct: human Tks4 (SH3PXD2B), residues 1-210: PX and SH3_(1) domains; The vector has a TEV site after the His-tag; source: E. coli Rosetta pLysS, purified
T3 sequence (looked up): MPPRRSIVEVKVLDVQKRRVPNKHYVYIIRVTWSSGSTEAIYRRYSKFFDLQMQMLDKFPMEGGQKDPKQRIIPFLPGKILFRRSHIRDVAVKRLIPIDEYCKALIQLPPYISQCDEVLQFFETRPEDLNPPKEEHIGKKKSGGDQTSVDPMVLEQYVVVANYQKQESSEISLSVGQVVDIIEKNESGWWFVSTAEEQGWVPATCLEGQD
The experiment in a line: MST; NT-647-labelled SH3_(3) constant at 20 nM, titrated with PX–SH3_(1) (16-step 2:3 dilutions from 412 µM) or, as a control, with SH3_(1); PBS, 0.5 mM TCEP, 0.05% TWEEN 20; room temperature.

B1: Tks4 PRR–SH3_(3) fragment (residues 333–426) (domain or fragment, human, UniProt A1X283 333-426, looked up)
chain: GDAKQRSPKMRQRPPPRRDMTIPRGLNLPKPPIPPQVEEEYYTIAEFQTTIPDGISFQAGLKVEVIEKNLSGWWYIQIEDKEGWAPATFIDKYK
modifications: NT-647 amine-reactive dye (in the MST only)
notes: human Tks4 (SH3PXD2B), residues 333-426: proline-rich region and SH3_(3) domain; The vector has a TEV site after the His-tag; Labelled in the MST, unlabelled in the ITC; source: E. coli Rosetta pLysS, purified
As for B1, the dissociation constant Kd in experiment [1] was roughly 0.24 µM; in experiment [2], 0.3 ± 0.2 µM.

B2: Tks4 PRRS peptide (peptide)
peptide: KMRQRPPPRRDMTIPRG
notes: human Tks4 (SH3PXD2B), truncated version of PRRL containing only the PTAM; source: synthetic peptide (Fmoc/tBu SPPS, RP-HPLC purified)
Consider B2, for which the dissociation constant (Kd) in experiment [3] was determined as 12 µM. In other words, the double-digit micromolar range.

B3: Tks4 PRRL fragment (residues 333–370) (domain or fragment, human)
chain: GSHMGDAKQRSPKMRQRPPPRRDMTIPRGLNLPKPPIPPQVE
notes: four N-terminal residues that are cloning artifacts; human Tks4 (SH3PXD2B), residues 333-370: proline-rich region with the PTAM (PPPRR) and the PKPPIPP motif; also called wild type PRRL; not shown: His-tag, N-terminal, cleaved
Turning to B3, the equilibrium dissociation constant (Kd) is 15 µM in experiment [4], 24 µM in experiment [5] and 11 µM in experiment [3].

B4: Tks4 PRRL^T353E phosphomimetic mutant fragment (domain or fragment, human)
chain: GSHMGDAKQRSPKMRQRPPPRRDMEIPRGLNLPKPPIPPQVE
notes: four N-terminal residues that are cloning artifacts; human Tks4 (SH3PXD2B), residues 333-370 with the phosphomimetic Thr-to-Glu mutation T353E; not shown: His-tag, N-terminal, cleaved
B4: the affinity in experiment [3], expressed as Kd, was 10 µM.

B5: Tks4 SH3_(3) domain (residues 371–426) (domain or fragment, human, UniProt A1X283 371-426, looked up)
chain: EEYYTIAEFQTTIPDGISFQAGLKVEVIEKNLSGWWYIQIEDKEGWAPATFIDKYK
modifications: also: NT-647 amine-reactive dye label, site not given here (MST only)
notes: human Tks4 (SH3PXD2B), residues 371-426: third SH3 domain; The vector has a TEV site after the His-tag; also called third SH3 domain; source: E. coli Rosetta pLysS, purified
As to B5, in experiment [6], the Kd was greater than 50 µM.
